In US12357802B2, “Self-actuating articles” (priority 2017, dated 2025):

Tested on: Micrococcus lysodeikticus cells
Assay: Lysozyme enzyme activity assay of dissolved micropost tips
Type: biochemical
Details: micropost tips 80% lysozyme and 20% PEO 200 k, vs uncompressed powder
Experimental: To measure the activity of lysozyme, the assay provided by Sigma Aldrich was used which measures the amount of lysed Micrococcus lysodeikticus cells. Briefly, a 200 unit/mL Lysozyme solution in 50 mM Potassium Phosphate Buffer was added to a 0.015% [w/v]Micrococcus lysodeikticus cell suspension in the same buffer. The decrease was recorded in A450 over 5 minutes. Nine micropost tips were fabricated from 80% lysozyme and 20% PEO 200 k and dissolved sets of three micropost tips together. Triplicate assays were performed on each dissolved solution for a total of nine tests and the results were compared to the results of a solution made with lysozyme that was not compressed into a micropost tip.

lysozyme
enzymatic activity after the manufacturing process: maintain their activity
